Experimental findings from US20200181278A1 (MITSUBISHI TANABE PHARMA, published 2020) are described below.

This test has as its target T1, mouse CD138 His (mouse, UniProt P18828 23-255, limits assumed).
T1 construct: also called mCD138; not shown: His tag
T1 sequence: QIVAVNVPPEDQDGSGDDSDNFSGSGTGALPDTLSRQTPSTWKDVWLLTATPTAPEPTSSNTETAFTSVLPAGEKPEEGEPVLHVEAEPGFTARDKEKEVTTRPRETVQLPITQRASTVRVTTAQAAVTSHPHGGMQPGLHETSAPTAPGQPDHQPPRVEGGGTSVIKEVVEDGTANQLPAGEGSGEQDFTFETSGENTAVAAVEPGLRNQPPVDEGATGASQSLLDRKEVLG
Put plainly: SPR, mouse CD138 His immobilised, antibody as analyte. The procedure:
Murine IgGs were purified from the hybridoma supernatants and the IgGs were subject to SPR (surface plasmon resonance) for kinetic binding measurements. […] […] KDs were measured using bivalent analyte fit.

B1: F11AP11E5 (antibody, V domains shown)
VH: QVQLQQSGAELVKPGASVKLSCKASGYTFTNYYMYWVKQRPGQGLEWIGEINPGNGGTNFNEKFKNKATLTVDKSSSTAYMQLSSLTSEDSAVYYCTTRFAYWGQGTLVIVSA
VL: DVVMTQTPLSLSVTIGQPASISCKSGQSLLYSNGKTYLTWLQQRPGQAPKLLMYQVSKLDPGIPDRFSGSGSETDFTLKISRVEAEDLGVYYCLQNTYYPHTFGAGTKLELKR
notes: Murine IgG purified from hybridoma supernatant
Regarding B1, the binding result was “no binding”.

B2: F12P7G11 (antibody, V domains shown)
VH: QVQLQQSGAELARPGASVKLSCKASGYTFSSHWMQWVKQRPGQGLEWIGAIYPGDGDTRFTQKFKGKATLTADKSSNTAYMQLSSLASEDSAVYYCARGIYYDRSRAMDYWGQGTSVTVSS
VL: QIVLSQSPAILSASPGEKVTMTCRASSSVNYMHWYQQKPGSSPKHWIYATSYLASGVPARFSGSGSGTSYSLTISRVEAEDAATYYCQQWSSDPLTFGAGTKLELKR
notes: as for B1
For B2, the binding result is “no binding”.
